Experimental data reported in the supplement of paper PMC11780869.

Test system: Bacillus subtilis
Assay: cleaved RNA product abundance (RNA/gDNA barcode ratio) relative to median wild-type variant (ratio to wild type); higher = more accumulation of the downstream cleavage product
Outline: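 Sequencing of barcodes from gel-selected, reverse-transcribed cleaved RNA and from genomic DNA, with UMI collapsing, yielded a per-construct RNA:gDNA ratio. Scaled to the median construct with the unmutated site, this ratio is the cleaved product abundance. The barcoded reporters (truncated aprE or tetM mRNAs with mutagenized RNase Y cleavage-site windows) were integrated into the B. subtilis chromosome, and cultures grew in LB at 37°C from OD600 0.0003 to 0.3.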

[1] = experiment (reporter, strain, medium): exp 2b: truncated aprE reporter, strain BJT200, cleavage site: cggR-gapA (positions -7 to +36 mutated)
[2] = experiment (reporter, strain, medium): exp 4a: truncated aprE reporter, strain BJT201 with 2% xylose (RNase J1 expressed), cleavage site: cggR-gapA (positions -7 to +36 mutated)
[3] = experiment (reporter, strain, medium): exp 6: tetM reporter, strain 168, cleavage site: cggR-gapA (positions -7 to +36 mutated)
[4] = experiment (reporter, strain, medium): exp 8a: truncated aprE reporter, strain BJT201 with 2% xylose (RNase J1 expressed), cleavage site: glnRA (positions -5 to +31 mutated)

Row | Sequence | cleaved RNA product abundance [1] | cleaved RNA product abundance [2] | cleaved RNA product abundance [4] | other results
1 | ACAGACGAAGGAGCCGCAAAGAAGTTATTAAGAGATGAATAAACCCTCAATATAAATATCTCTCACTTATTTAAA | 0.148 | 0.0846 |  | cleaved RNA product abundance [3]: 0.115
2 | CGACATGTCCCGCTTCTTTCATTATTCCGTTAGCAATTGTTATGGTATATACAATTATCTTTTAAGAGGAGGAAT |  |  | 0.256 | 
3 | CGACATGTCCCGCTTCTTTCATTACTCCGTTAGCAACTGTTTTGCTAAATACATTTACCTTTTAAGAGGAGGAAT |  |  | 1.11 | 
4 | CGACATGTCCCGCTTCTTTCATTAATCCGTGAGCAACTGTTTTGCTATATTCATTTACCTTTTAAGAGGAGGAAT |  |  | 0.177 | 
5 | ACAGACGAAGGAGCCGCAAAGAAGTTATTAAGGGATGAATAATCCATTAATATAAATATCTCTCACTTATTTAAA | 0.766 | 0.688 |  | cleaved RNA product abundance [3]: 0.984
6 | ACAGACGAAGGAGCCGCAAAGAAGTTGTTAAGAGATGAATAATCCCTCAATATAAATATCTCTCACTTATTTAAA |  | 0.103 |  | 
7 | CGACATGTCCCGCTTCTTTCATTAATCCGTTAGCAATTGTTTTGCTATATACTTTTACCTTTTAAGAGGAGGAAT |  |  | 0.272 | 
8 | ACAGACGAAGGAGCCGCAAAGAAGTTATTAAGGGATGAACAATCCCTCAACATAAATATCTCTCACTTATTTAAA |  | 0.265 |  | 
9 | ACAGACGAAGGAGCCGCAAAGAAGTTATTAAGGGAGGAATAATCCCTAAATATAAATATCTCTCACTTATTTAAA | 0.404 | 0.324 |  | 
10 | ACAGACGAAGGAGCCGCCAAGAAGTAATTAAGGGATGAATAATCCCTCAATATAAATATCTCTCACTTATTTAAA |  | 0.375 |  | 
11 | ACAGACGAAGGAGCCGCAAATAAGTTATTAAGGGATGAATAACCCCTCAATATAAATATCTCTCACTTATTTAAA | 0.582 | 0.494 |  | 
12 | ACAGACGAAGGAGCCGCAAAGAAGTTATTAAGCGATGAATAATCCCTCAATATAGATATCTCTCACTTATTTAAA |  | 0.0736 |  | 
13 | ACAGACGAAGGAGCCGCAAAGAAGTTATTAAGCGATGAATAATCCCGCAATATAAATATCTCTCACTTATTTAAA | 0.0603 | 0.0767 |  | 
14 | ACAGACGAAGGAGCCGCAAAGAAGTTATTAAGGGATGAATATTCCTTCAATATAAATATCTCTCACTTATTTAAA |  | 0.546 |  | 
15 | ACAGACGAAGGAGCCGCAAAGAAGATATTAAGGGATGAATAATCCCTCAACATAAATATCTCTCACTTATTTAAA | 0.131 | 0.157 |  | 
16 | CGACATGTCCCGCTTCTTTCATTAATCCGTTAGCAACTGTTTTGCTATATACATTTTCCTTTTAAGAGGAGGAAT |  |  | 0.416 | 
17 | ACAGACGAAGGAGCCGCAAAGAATTTATTAAGGGATGAATAATCCCTCAATTTAAATATCTCTCACTTATTTAAA | 0.154 | 0.0947 |  | 
18 | CGACATGTCCCGCTTCTTTCATTAATCCGTTAGCAACTGTCTTACTATATACATTTACCTTTTAAGAGGAGGAAT |  |  | 0.324 | 
19 | CGACATGTCCCGCTTCTTTCATTAATCAGTTAGCAACTGTTTTGCTATATAGATTTACCTTTTAAGAGGAGGAAT |  |  | 0.842 | 
20 | CGACATGTCCCGCTTCTTTCATTACTCCCCTAGCAACTGTTTGGCTATATATATTTACCTTTTAAGAGGAGGAAT |  |  | 0.221 | 

Row | Sequence | cleaved RNA product abundance [1] | cleaved RNA product abundance [2] | cleaved RNA product abundance [4] | other results
21 | CGACATGTCCCGCTTCTTTCATTAATCCGTTACCAACTGTTTTGCTATATACATTTAACTTTTAAGAGGAGGAAT |  |  | 0.282 | 
22 | ACAGACGAAGGAGCCGCAAAGAAGTTATTAACGGATAAATAATCCCTCAATATAAATATCTCTCACTTATTTAAA | 0.103 | 0.188 |  | 
23 | CGACATGTCCCGCTTCTTTCATTAATCCGTTAGCAACTGTTTTGCTATACACATTTACATTTTAAGAGGAGGAAT |  |  | 0.372 | 
24 | CGACATGTCCCGCTTCTTTCATTAATCAGTTAGCAACTGTTTTGCTATATACATTAACCTTTTAAGAGGAGGAAT |  |  | 0.984 | 
25 | CGACATGTCCCGCTTCTTTCATTAATCCATTAGCAACTGTTTTGCTATATACATTTTCCTTTTAAGAGGAGGAAT |  |  | 0.292 | 
26 | CGACATGTCCCGCTTCTTTCATTAATCCGTTAACAACTGTTTTGCTATATACATTTTCCTTTTAAGAGGAGGAAT |  |  | 0.0904 | 
27 | ACAGACGAAGGAGCCGCAAAGAAGTTATTAAGGGATGATTAATCCCTCAATATTAATATCTCTCACTTATTTAAA | 0.164 |  |  | 
28 | ACAGACGAAGGAGCCGCAAAGAAGTTATTAAGGGATGAGTAATCCCTCATTATAAATATCTCTCACTTATTTAAA |  | 0.185 |  | 
29 | ACAGACGAAGGAGCCGCAAAGAAGTTATTAAGGGATAATTAATCCCTCAATATAAATATCTCTCACTTATTTAAA | 1.13 | 0.759 |  | 
30 | ACAGACGAAGGAGCCGCAAAGAAGTTATTAAGTGATGAATAATGCCTCAATATAAATATCTCTCACTTATTTAAA | 0.1 |  |  | 
31 | CGACATGTCCCGCTTCTTTCATTAATCCGTTAGCAACTGATTTGCTAAATACATTTACCTTTTAAGAGGAGGAAT |  |  | 0.217 | 
32 | ACAGACGAAGGAGCCGCAAAGAAGTTTTTAAGGGATGAATAATCCCTCAATTTAAATATCTCTCACTTATTTAAA |  | 0.188 |  | 
33 | CGACATGTCCCGCTTCTTTCATTAATCCGTTAGTAACTGTTTTGCTACATACATTTACCTTTTAAGAGGAGGAAT |  |  | 0.318 | 
34 | ACAGACGAAGGAGCCGCAAAGAAATTATAAAGGGATGAATAATCCCTCAATATAAATATCTCTCACTTATTTAAA | 0.215 | 0.342 |  | 
35 | ACAGACGAAGGAGCCGCAAAGAAGTTATTAAGGGATTGATAATCCCTCAATATAAATATCTCTCACTTATTTAAA |  | 0.889 |  | 
36 | CGACATGTCCCGCTTCTTTCATTAATCCGTTAGCAATTGTTTTGCTATATACATTTACGTTTTAAGAGGAGGAAT |  |  | 1.1 | 
37 | CGACATGTCCCGCTTCTTTCATTAATCCGTTAGCAACAATTTTGCTATATACATTTACCTTTTAAGAGGAGGAAT |  |  | 1.04 | 
38 | ACAGACGAAGGAGCCGCAAAGAATTTATTAAGGGCTGAATAATCCCTCAATATAAATATCTCTCACTTATTTAAA |  | 0.402 |  | 
39 | CGACATGTCCCGCTTCTTTCATTAATCCGTTAGAAACTGTTTAGCTATATACATTTACCTTTTAAGAGGAGGAAT |  |  | 0.295 | 
40 | ACAGACGAAGGAGCCGCAACGAAGTTATTAAGGGATGAATAATCCTTCAATATAAATATCTCTCACTTATTTAAA |  | 0.448 |  | 

Row | Sequence | cleaved RNA product abundance [1] | cleaved RNA product abundance [2] | cleaved RNA product abundance [4] | other results
41 | CGACATGTCCCGCTTCTTTCATTAATCCGTTAGCAATTGTTTTGCTATATAAATTTACCTTTTAAGAGGAGGAAT |  |  | 1.01 | 
42 | CGACATGTCCCGCTTCTTTCATTAATTCGTTAGAAACTGTTTTGCTATATACATTTACCTTTTAAGAGGAGGAAT |  |  | 0.285 | 
43 | ACAGACGAAGGAGCCGCAAAGAAGTTATTAAGATATGAATAATCCCTCAATATAAATATCTCTCACTTATTTAAA | 0.0758 | 0.115 |  | 
44 | CGACATGTCCCGCTTCTTTCATTACTCCGTTAGTAACGGTTTTGCTATATACATTTACCTTTTAAGAGGAGGAAT |  |  | 0.281 | 
45 | CGACATGTCCCGCTTCTTTCATTAATCCGTTAGCAACTGTTTTGCTATATACAACTACCTTTTAAGAGGAGGAAT |  |  | 1.12 | 
46 | ACAGACGAAGGAGCCGCAAACAAGTTATTAAGGGATGAAAAATCCCTCAATATAAATATCTCTCACTTATTTAAA |  | 0.359 |  | 
47 | ACAGACGAAGGAGCCGCAAAAAAGTTATTAAGGGATGAATAATCCCTCAATATAGATATCTCTCACTTATTTAAA | 0.991 | 0.644 |  | 
48 | ACAGACGAAGGAGCCGCAAAGAAATTATTAACGGATGAATAATCCCTCAATATAAATATCTCTCACTTATTTAAA | 0.142 | 0.168 |  | 
49 | ACAGACGAAGGAGCCGCAAAGAACTTATTAAGGGATTAATAATCCCTCAATATAAATATCTCTCACTTATTTAAA |  | 0.621 |  | 
50 | ACAGACGAAGGAGCCGCAAAGAAGTTATTAAAGGATGAATAATCCCTCAATATAAATATCTCTCACTTATTTAAA | 0.162 | 0.211 |  | cleaved RNA product abundance [3]: 0.242
51 | ACAGACGAAGGAGCCGCAAAGAAGTTAATAAGGGATGAAAAATCCCTCAATATAAATATCTCTCACTTATTTAAA |  | 0.293 |  | 
52 | ACAGACGAAGGAGCCGCAGACAAGTTATTAAGGGATGAATAATCCCTCAATATAAATATCTCTCACTTATTTAAA |  | 0.844 |  | 
53 | ACAGACGAAGGAGCCGCAAAGAAGATATTAAGGGATGAATAATCCCTCTATATAAATATCTCTCACTTATTTAAA | 0.362 | 0.406 |  | 
54 | CGACATGTCCCGCTTCTTTCATTAATCCGTTAGCTACTGTTTTGCTATATACATTTACGTTTTAAGAGGAGGAAT |  |  | 0.818 | 
55 | ACAGACGAAGGAGCCGCAAAGAAGTTATTAAGGGATGATTAATCACTCAATATAAATATCTCTCACTTATTTAAA | 0.152 |  |  | 
56 | CGACATGTCCCGCTTCTTTCATTAATCAGTTAGCAACTGTTTTGCAATATACATTTACCTTTTAAGAGGAGGAAT |  |  | 0.332 | 
57 | CGACATGTCCCGCTTCTTTCATTAATCCGTTAGCAACTGTTTTTCTATATAGATTTACCTTTTAAGAGGAGGAAT |  |  | 0.925 | 
58 | ACAGACGAAGGAGCCGCAAAGAAGTTATTAAGGGATGAAAAATCCATCAATATAAATATCTCTCACTTATTTAAA | 0.141 | 0.223 |  | 
59 | ACAGACGAAGGAGCCGCAAATAAGTTATGAAGGGATGAATAATCCCTCAATATAAATATCTCTCACTTATTTAAA |  | 0.558 |  | 
60 | CGACATGTCCCGCTTCTTTCATTATTCCGATAGCAACTATTTTGCTATATACATTTACCTTTTAAGAGGAGGAAT |  |  | 1.85 | 
